Assay results published in PMC8871097.

Key:
[1] = molecular target: Pea seed ferritin purified from pea seed milk boiled for 5 min (Pisum sativum (pea)); experiment: native gel or EMSA; Native-PAGE, 5-20% gradient gel, samples not boiled, 180 V, 4 °C, Coomassie brilliant blue R-250; assembly state of the purified ferritin
[2] = molecular target: Pea seed ferritin purified from pea seed milk boiled for 10 min (Pisum sativum (pea)); experiment: as above

| stoichiometry N [1] | stoichiometry N [2] | Binder |
| --- | --- | --- |
| 24 |  | Pea seed ferritin purified from pea seed milk boiled for 5 min (natural protein, modifications not checked) TTAPLTGVIFEPFEEVKKDYLAVPSVPLVSLARQNFADECESVINEQINVEYNASYVYHSLFAYFDRDNVALKGFAKFFKESSEEHREHAEKLMKYQNTRGGRVVLHPIKDVPSEFEHVEKGDALYAMELALSLEKLTNEKLLNVHSVAERNNDLEMTHFIEGEYLAEQVEAIKKISEYVAQLRRVGKGHGVWHFDQRLLHGVHGA |
|  | 24 | Pea seed ferritin purified from pea seed milk boiled for 10 min (natural protein, modifications not checked) TTAPLTGVIFEPFEEVKKDYLAVPSVPLVSLARQNFADECESVINEQINVEYNASYVYHSLFAYFDRDNVALKGFAKFFKESSEEHREHAEKLMKYQNTRGGRVVLHPIKDVPSEFEHVEKGDALYAMELALSLEKLTNEKLLNVHSVAERNNDLEMTHFIEGEYLAEQVEAIKKISEYVAQLRRVGKGHGVWHFDQRLLHGVHGA |
